T1: hBCMA (human BCMA) (Homo sapiens, UniProt Q02223)
T1 sequence (Q02223 1-184): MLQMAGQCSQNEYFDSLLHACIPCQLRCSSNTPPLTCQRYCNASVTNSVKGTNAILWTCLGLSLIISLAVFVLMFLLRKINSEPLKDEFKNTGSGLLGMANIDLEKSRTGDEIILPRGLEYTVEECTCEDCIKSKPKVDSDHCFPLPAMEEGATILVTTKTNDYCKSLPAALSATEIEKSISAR


Columns and labels:
[1] = biological target: T1, hBCMA (human BCMA); assay: Kinetics and affinity of hBCMA/human IgG interactions by SPR (Bio-Rad Proteon XPR36); format: binding; conditions: human BCMA, 37° C.
Summary of the method: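 Anti-BCMA IgGs were amine-coupled to a GLC chip, and hBCMA analyte was injected as a single-cycle kinetic titration (0.08, 0.4, 2, 10, 50 nM; 2 min each) at 37° C. or 25° C. in HBS-T+ pH 7.4 with 1 mg/mL BSA. Dissociation was followed 2 hours, with double-referenced 1:1 Langmuir-plus-mass-transport fitting.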

[2] = system: Cyno BCMA; assay: Kinetics and affinity of cyno BCMA/human IgG interactions by SPR (Bio-Rad Proteon XPR36); format: binding, cynomolgus; conditions: 37° C.

| ka Human [1] [M⁻¹ s⁻¹] | kd Human [1] [s⁻¹] | kd Cyno [2] [s⁻¹] | Molecule | ka Cyno [2] [M⁻¹ s⁻¹] |
| --- | --- | --- | --- | --- |
| 1.31e+07 | 0.00212 | 0.00219 | C01_Rd4_6 nM_C10: anti-BCMA antibody (antibody, V domains shown) VH: EVQLLESGGGLVQPGGSLRLSCAASGFTFSSYPMSWVRQAPGKGLEWVSAIGGSGGSLPYADSVKGRFTISRDNSKNTLYLQMNSLRAEDTAVYYCARYWPMDSWGQGTLVTVSS VL: EIVLTQSPGTLSLSPGERATLSCRASQSVSSVYLAWYQQKPGQAPRLLIYDASSRAPGIPDRFSGSGSGTDFTLTISRLEPEDFAVYYCQQYSTWPLTFGQGTKVEIK | 4.44e+06 |
| 1.17e+07 | 7.34e-05 | 0.000248 | COMBO_Rd4_6 nM_C21: anti-BCMA antibody (antibody, V domains shown) VH: EVQLLESGGGLVQPGGSLRLSCAASGFTFSSYPMSWVRQAPGKGLEWVSAIGGSGGSLPYADSVKGRFTISRDNSKNTLYLQMNSLRAEDTAVYYCARYWPMDSWGQGTLVTVSS VL: EIVLTQSPGTLSLSPGERATLSCRASQSVSAAYLAWYQQKPGQAPRLLMYDASIRATGIPDRFSGSGSGTDFTLTISRLEPEDFAVYYCQQYMCWPLTFGQGTKVEIK | 3.17e+06 |
| 1.51e+07 | 0.00825 | 0.00936 | C01_Rd4_0.6 nM_C09: anti-BCMA antibody (antibody, V domains shown) VH: EVQLLESGGGLVQPGGSLRLSCAASGFTFSSYPMSWVRQAPGKGLEWVSAIGGSGGSLPYADSVKGRFTISRDNSKNTLYLQMNSLRAEDTAVYYCARYWPMDSWGQGTLVTVSS VL: EIVLTQSPGTLSLSPGERATLSCRASQSVSSLFLAWYQQKPGQAPRLLIYDASSRAPGIPDRFSGSGSGTDFTLTISRLEPEDFAVYYCQQYSAWPLTFGQGTKVEIK | 5.28e+06 |
| 1.34e+07 | 0.000115 | 0.000304 | COMBO_Rd4_0.6 nM_C21: anti-BCMA antibody (antibody, V domains shown) VH: EVQLLESGGGLVQPGGSLRLSCAASGFTFSSYPMSWVRQAPGKGLEWVSAIGGSGGSLPYADSVKGRFTISRDNSKNTLYLQMNSLRAEDTAVYYCARYWPMDSWGQGTLVTVSS VL: EIVLTQSPGTLSLSPGERATLSCRASQSVSSSYLAWYQQKPGQAPRLLMYDASIRATGIPDRFSGSGSGTDFTLTISRLEPEDFAVYYCQQYQSWPLTFGQGTKVEIK | 3.63e+06 |
| 6.02e+06 | 0.00276 | 0.00625 | C01_Rd4_6 nM_C20: anti-BCMA antibody (antibody, V domains shown) VH: EVQLLESGGGLVQPGGSLRLSCAASGFTFSSYPMSWVRQAPGKGLEWVSAIGGSGGSLPYADSVKGRFTISRDNSKNTLYLQMNSLRAEDTAVYYCARYWPMDSWGQGTLVTVSS VL: EIVLTQSPGTLSLSPGERATLSCRASQSVSPLYLAWYQQKPGQAPRLLIYDASSRAPGIPDRFSGSGSGTDFTLTISRLEPEDFAVYYCQQYSAFPLTFGQGTKVEIK | 3.6e+06 |
| 6.74e+06 | 0.000124 | 0.000412 | COMBO_Rd4_6 nM_C11: anti-BCMA antibody (antibody, V domains shown) VH: EVQLLESGGGLVQPGGSLRLSCAASGFTFSSYPMSWVRQAPGKGLEWVSAIGGSGGSLGYADSVKGRFTISRDNSKNTLYLQMNSLRAEDTAVYYCARYWPMDSWGQGTLVTVSS VL: EIVLTQSPGTLSLSPGERATLSCRASQSVSPLYLAWYQQKPGQAPRLLMYDASIRATGIPDRFSGSGSGTDFTLTISRLEPEDFAVYYCQQYKAWPLTFGQGTKVEIK | 2.64e+06 |
| 1.55e+07 | 0.0063 | 0.00464 | C01_Rd4_0.6 nM_C16: anti-BCMA antibody (antibody, V domains shown) VH: EVQLLESGGGLVQPGGSLRLSCAASGFTFSSYPMSWVRQAPGKGLEWVSAIGGSGGSLPYADSVKGRFTISRDNSKNTLYLQMNSLRAEDTAVYYCARYWPMDSWGQGTLVTVSS VL: EIVLTQSPGTLSLSPGERATLSCRASQSVSSTYLAWYQQKPGQAPRLLIYDASSRAPGIPDRFSGSGSGTDFTLTISRLEPEDFAVYYCQQYSSWPLTFGQGTKVEIK | 4.95e+06 |
| 7.98e+06 | 0.000113 | 0.000226 | COMBO_Rd4_6 nM_C25: anti-BCMA antibody (antibody, V domains shown) VH: EVQLLESGGGLVQPGGSLRLSCAASGFTFSSYPMSWVRQAPGKGLEWVSAIGGSGGSTYYADSVKGRFTISRDNSKNTLYLQMNSLRAEDTAVYYCARYWPMDPWGQGTLVTVSS VL: EIVLTQSPGTLSLSPGERATLSCRASQSVSSPYLAWYQQKPGQAPRLLMYDASIRATGIPDRFSGSGSGTDFTLTISRLEPEDFAVYYCQQYQSWPLTFGQGTKVEIK | 2.85e+06 |
| 1.58e+07 | 0.0128 | 0.00868 | C01_Rd4_6 nM_C09: anti-BCMA antibody (antibody, V domains shown) VH: EVQLLESGGGLVQPGGSLRLSCAASGFTFSSYPMSWVRQAPGKGLEWVSATVGSGGSIGYADSVKGRFTISRDNSKNTLYLQMNSLRAEDTAVYYCARYWPMDSWGQGTLVTVSS VL: EIVLTQSPGTLSLSPGERATLSCACSQSVSSTYLAWYQQKPGQAPRLLIYDASSRAPGIPDRFSGSGSGTDFTLTISRLEPEDFAVYYCQQYSAWPLTFGQGTKVEIK | 3.73e+06 |
| 1.07e+07 | 0.000158 | 0.000137 | COMBO_Rd4_0.6 nM_C04: anti-BCMA antibody (antibody, V domains shown) VH: EVQLLESGGGLVQPGGSLRLSCAASGFTFSSYPMSWVRQAPGKGLEWVSAHIGSGGSTYYADSVKGRFTISRDNSKNTLYLQMNSLRAEDTAVYYCARYWPMDSWGQGTLVTVSS VL: EIVLTQSPGTLSLSPGERATLSCRASQSVSSTYLAWYQQKPGQAPRLLMYDASIRATGIPDRFSGSGSGTDFTLTISRLEPEDFAVYYCQQYQSWPLTFGQGTKVEIK | 3.52e+06 |
| 5.47e+06 | 9.72e-05 | 0.00016 | COMBO_Rd4_6 nM_C10: anti-BCMA antibody (antibody, V domains shown) VH: EVQLLESGGGLVQPGGSLRLSCAASGFTFSSYPMSWVRQAPGKGLEWVSAIGGSGGSIHYADSVKGRFTISRDNSKNTLYLQMNSLRAEDTAVYYCARYWPMDSWGQGTLVTVSS VL: EIVLTQSPGTLSLSPGERATLSCRASQSVSSSYWGWYQQKPGQAPRLLMYDASIRATGIPDRFSGSGSGTDFTLTISRLEPEDFAVYYCQQYQCWPLTFGQGTKVEIK | 1.52e+06 |
| 1.55e+07 | 0.015 | 0.0119 | C01_Rd4_0.6 nM_C03: anti-BCMA antibody (antibody, V domains shown) VH: EVQLLESGGGLVQPGGSLRLSCAASGFTFSSYPMSWVRQAPGKGLEWVSAIGGSGGSLPYADSVKGRFTISRDNSKNTLYLQMNSLRAEDTAVYYCARYWPMDSWGQGTLVTVSS VL: EIVLTQSPGTLSLSPGERATLSCRASCDVSSTYLAWYQQKPGQAPRLLIYDASSRAPGIPDRFSGSGSGTDFTLTISRLEPEDFAVYYCQQYMRSPLTFGQGTKVEIK | 4.72e+06 |
| 1.23e+07 | 0.00374 | 0.00285 | C01_Rd4_0.6 nM_C27: anti-BCMA antibody (antibody, V domains shown) VH: EVQLLESGGGLVQPGGSLRLSCAASGFTFSSYPMSWVRQAPGKGLEWVSAIGGSGGSLPYADSVKGRFTISRDNSKNTLYLQMNSLRAEDTAVYYCARYWPMDSWGQGTLVTVSS VL: EIVLTQSPGTLSLSPGERATLSCRASQSVSSTYLAWYQQKPGQAPRLLIYDASSRAPGIPDRFSGSGSGTDFTLTISRLEPEDFAVYYCQQYSRWPLTFGQGTKVEIK | 3.34e+06 |
| 1.82e+07 | 0.0154 | 0.0121 | C01_Rd4_0.6 nM_C06: anti-BCMA antibody (antibody, V domains shown) VH: EVQLLESGGGLVQPGGSLRLSCAASGFTFSSYPMSWVRQAPGKGLEWVSAIGGSGGSLPYADSVKGRFTISRDNSKNTLYLQMNSLRAEDTAVYYCARYWPMDSWGQGTLVTVSS VL: EIVLTQSPGTLSLSPGERATLSCRASEAVPSTYLAWYQQKPGQAPRLLIYDASSRAPGIPDRFSGSGSGTDFTLTISRLEPEDFAVYYCQQYSAFPLTFGQGTKVEIK | 6.22e+06 |
| 2.33e+07 | 0.0497 | 0.0327 | C01_Rd4_6 nM_C04: anti-BCMA antibody (antibody, V domains shown) VH: EVQLLESGGGLVQPGGSLRLSCAASGFTFSSYPMSWVRQAPGKGLEWVSAIGGSGGSLPYADSVKGRFTISRDNSKNTLYLQMNSLRAEDTAVYYCARYWPMDSWGQGTLVTVSS VL: EIVLTQSPGTLSLSPGERATLSCCSSQSVSSTYLAWYQQKPGQAPRLLIYDASSRAPGIPDRFSGSGSGTDFTLTISRLEPEDFAVYYCQQYSAFPLTFGQGTKVEIK | 6.34e+06 |

Reference: patent US11814435B2, “Therapeutic antibodies and their uses” (PFIZER INC., priority 2015, dated 2023)
